Data on ten molecules can be found in patent US20240336686A1 (ELPISCIENCE SUZHOU BIOPHARMA, published 2024).

The labels stand for the following.
B1: Anti-PDL1/SIRPα bispecific antibody ES019-079 (bispecific antibody)
light: QIVLTQSPAIMSASPGEKVTLTCSASSSVSSSYLYWYQQKPGSSPKLWIYSTSNLASGVPARFSGSGSGTSYSLTISSMEAEDAASYFCHQWSSYPYTFGGGTKLEIK
heavy (part 1 of 2): EVQLVESGGGLVQAGGSLRLSCAASGFTFSSHAMSWVRQAPGKGLEWVSDIDTSGTTTDYADSVKGRFTISRDNAKNTLYLQMNSLKPEDTAVYYCAKGPREATDIRSWGQGTQVTVSS
heavy (part 2 of 2): GGGGSGGGGSGGGGSEVQLQQSGAELVKPGASVKLSCTASGFNIKDYYMHWVKQRTEQGLEWIGRIDPEDGETKYAPKFQGKATITADTSSNTAYLQLSSLTSEDTAVYYCDRGLAYWGQGTLVTVSA
notes: not shown: CL; linker and Fc; CH1
B2: Anti-PDL1/SIRPα bispecific antibody ES019-029 (bispecific antibody)
chain 1: EVQVVESGGGLVQSGGSLKLSCAGSGFTESAGFMVWHRQVPGKERELVALIATPSGSTNYADSVKGRFTISRDNGKNTVYLQMNSLKPEDTAVYYCNIRGYWGQGTLVTVSS
chain 2: EVQLQQSGAELVKPGASVKLSCTASGFNIKDYYMHWVKQRTEQGLEWIGRIDPEDGETKYAPKFQGKATITADTSSNTAYLQLSSLTSEDTAVYYCDRGLAYWGQGTLVTVSA
chain 3: B1 light
B3: Anti-PDL1/SIRPα bispecific antibody ES019-025 (bispecific antibody)
light: B1 light
heavy (part 1 of 2): B2 chain 1
heavy (part 2 of 2): B2 chain 2
notes: not shown: CL; linker; CH1-Fc
B4: Anti-PDL1 antibody C570 (antibody, V domains shown)
VH: B1 heavy (part 1 of 2)
notes: Heavy chain antibody; also called Anti-PDL1, C570
B5: Anti-PDL1 antibody 570h3 (antibody, V domains shown)
VH: B1 heavy (part 1 of 2) with A14P, A75S, K87R, P88A, Q114T
notes: Humanized heavy chain antibody; also called Anti-PDL1, 570h3
B6: Anti-Claudin18.2 antibody hu28.H1L2 (antibody, V domains shown)
VH: QVQLVQSGAEVKKPGASVKVSCKASGYTFTNWVHWVRQAPGQGLEWMGEINPTNARSNYNEKFKKRVTMTRDTSTSTVYMELSSLRSEDTAVYYCARIYYGNSFAHWGQGTLVTVSS
VL: DIVMTQSPDSLAVSLGERATINCKSSQSLLNAGNQKNYLTWYQQKPGQPPKLLIYWSSTRESGVPDRFSGSGSGTDFTLTISSLQAEDVAVYHCQNNYYYPLTFGGGTKLEIK
notes: Humanized monoclonal antibody; also called Anti-Claudin18.2, hu28.H1L2
B7: Anti-Claudin18.2/SIRPα bispecific antibody ES028-005 (bispecific antibody)
light: B6 VL
heavy (part 1 of 2): B6 VH
heavy (part 2 of 2): GGGGSGGGGSGGGGSQIVLTQSPAIMSASPGEKVTLTCSASSSVSSSYLYWYQQKPGSSPKLWIYSTSNLASGVPARFSGSGSGTSYSLTISSMEAEDAASYFCHQWSSYPYTFGGGTKLEIKGGGGSGGGGSGGGGSGGGGSEVQLQQSGAELVKPGASVKLSCTASGFNIKDYYMHWVKQRTEQGLEWIGRIDPEDGETKYAPKFQGKATITADTSSNTAYLQLSSLTSEDTAVYYCDRGLAYWGQGTLVTVSA
notes: not shown: CL; CH1-Fc
B8: Anti-Claudin18.2/SIRPα bispecific antibody ES028-001 (bispecific antibody)
light (part 1 of 2): B6 VL
light (part 2 of 2): B7 heavy (part 2 of 2)
heavy: B6 VH
notes: not shown: CL; CH1-Fc
B9: Anti-Claudin18.2 antibody hu26.H1L2 (S92A) (antibody, V domains shown)
VH: EVQLLESGGGLVQPGGSLRLSCAASGFTLSSYALSWVRQAPGKGLEWVSYISNLGGSTFYPDTVKGRFTISRDNSKNTLYLQMNSLRAEDTAVYYCAKHLYNYDAFASWGQGTLVTVSS
VL: DIQLTQSPSFLSASVGDRVTITCRASSSVNYIHWYQQKPGKAPKALIYATSNLASGVPSRFSGSGSGTEYTLTISSLQPEDFATYYCQQWNANPLTFGQGTKLEIK
notes: Humanized monoclonal antibody; also called Anti-Claudin18.2, hu26.H1L2 (S92A)
B10: Anti-Claudin18.2/SIRPα bispecific antibody ES028-009 (bispecific antibody)
light (part 1 of 2): B1 light
light (part 2 of 2): GGGGSGGGGSGGGGSDIVMTQSPDSLAVSLGERATINCKSSQSLLNAGNQKNYLTWYQQKPGQPPKLLIYWSSTRESGVPDRFSGSGSGTDFTLTISSLQAEDVAVYHCQNNYYYPLTFGGGTKLEIKGGGGSGGGGSGGGGSGGGGSQVQLVQSGAEVKKPGASVKVSCKASGYTFTNWVHWVRQAPGQGLEWMGEINPTNARSNYNEKFKKRVTMTRDTSTSTVYMELSSLRSEDTAVYYCARIYYGNSFAHWGQGTLVTVSS
heavy: B2 chain 2
notes: not shown: CL; CH1-Fc

Residue numbers refer to the chain shown, from its start. Names may count otherwise.

Sequence of human PDL1 protein (Octet assay) (Q9NZQ7 19-238 limits assumed): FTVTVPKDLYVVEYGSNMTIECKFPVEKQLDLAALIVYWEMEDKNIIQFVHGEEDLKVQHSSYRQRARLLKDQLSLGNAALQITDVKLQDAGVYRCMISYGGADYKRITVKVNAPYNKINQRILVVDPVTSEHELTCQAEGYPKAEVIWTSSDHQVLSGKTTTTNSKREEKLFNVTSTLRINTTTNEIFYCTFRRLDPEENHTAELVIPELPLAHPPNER

One experiment concerns the target human PDL1 protein (Octet assay) (human, UniProt Q9NZQ7 19-238). Description: Octet; antibody on sensor, PDL1 protein in solution. How it is done:
The Anti-PDL1/SIRPα bispecific protein were characterized for binding affinity against human PDL1 using Octet assay (ForeBio) according to manufacturer's manual, separately. Briefly, the antibodies were coupled on sensors and then the sensors were dipped into PDL1 protein gradients (start at 200 nM, with 2-fold dilution and totally 8 doses). Their binding responses were measured in real-time and results were fit globally.
What is called Kd is the free concentration of one partner at which half of the binding sites on the other are occupied at equilibrium, for simple one-to-one binding. A low value points to tighter binding. A word on the koff: it is the rate constant with which the complex falls apart. Read a low koff as slow dissociation. Broadly, the kon is the rate constant with which the complex forms. Low values mean slower complex formation, high ones faster complex formation. B1 registered a Kd of 0.0485 nM, a koff of 2.85e-05 s⁻¹ and a kon of 588000 M⁻¹ s⁻¹.

As for B2, the affinity, expressed as Kd, was 1.23 nM; the koff was determined as 0.00136 s⁻¹; the kon was determined as 1.11e+06 M⁻¹ s⁻¹.

The molecule B3 showed a Kd of 3.81 nM, a koff of 0.00604 s⁻¹ and a kon of 1.58e+06 M⁻¹ s⁻¹.

In the case of B4, the Kd was found to be 0.374 nM, the koff came to 0.000306 s⁻¹ and the kon came to 819000 M⁻¹ s⁻¹.

In turn, B5 displayed a Kd of 0.198 nM, a koff of 9.29e-05 s⁻¹ and a kon of 470000 M⁻¹ s⁻¹.

Another experiment addresses T1, human Claudin18.2 protein (Octet assay) (human, UniProt P56856-2 1-261, limits assumed).
T1 construct: UniProt P56856 isoform A2 corresponds to Claudin18.2; also called CLDN18.2
T1 sequence (looked up): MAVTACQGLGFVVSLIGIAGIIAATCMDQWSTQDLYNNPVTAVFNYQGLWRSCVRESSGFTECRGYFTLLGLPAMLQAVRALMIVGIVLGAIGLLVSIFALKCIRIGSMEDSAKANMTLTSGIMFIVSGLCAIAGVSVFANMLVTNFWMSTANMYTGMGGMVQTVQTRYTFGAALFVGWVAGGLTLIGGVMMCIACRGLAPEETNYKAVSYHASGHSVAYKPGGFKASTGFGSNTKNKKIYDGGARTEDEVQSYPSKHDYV
The experiment in a line: Octet; antibody on sensor, Claudin18.2 protein in solution. How it is done:
The Anti-Claudin18.2/SIRPα bispecific protein were characterized for binding affinity against human Claudin18.2 or SIRPα using Octet assay (ForeBio) according to manufacturer's manual, separately. Briefly, the antibodies were coupled on sensors and then the sensors were dipped into Claudin18.2 or SIRPα protein gradients (start at 200 nM, with 2-fold dilution and totally 8 doses). Their binding responses were measured in real-time and results were fit globally.
Background: In BLI a coated tip is dipped into the sample, and binding shifts an interference pattern.
As for B6, the Kd was under 0.001 nM, the koff was under 1e-07 s⁻¹ and the kon is 95800 M⁻¹ s⁻¹.

For the molecule B7, the Kd was under 0.001 nM, the dissociation rate constant (koff) was under 1e-07 s⁻¹ and the association rate constant (kon) came to 106000 M⁻¹ s⁻¹.

Regarding B8, the Kd was under 0.001 nM, the koff is under 1e-07 s⁻¹ and the kon was 105000 M⁻¹ s⁻¹.

B9 yielded a Kd of 1.81 nM, a koff of 6.25e-05 s⁻¹ and a kon of 34500 M⁻¹ s⁻¹.

In turn, B10 displayed a Kd of under 0.001 nM, a koff of under 1e-07 s⁻¹ and a kon of 21100 M⁻¹ s⁻¹.
